{
  "source": "paper PMC5394236",
  "target": "GST fused recombinant Pparγ LBD protein (UniProt P37231)",
  "sequence (P37231 whole entry, the tested form may be a part)": "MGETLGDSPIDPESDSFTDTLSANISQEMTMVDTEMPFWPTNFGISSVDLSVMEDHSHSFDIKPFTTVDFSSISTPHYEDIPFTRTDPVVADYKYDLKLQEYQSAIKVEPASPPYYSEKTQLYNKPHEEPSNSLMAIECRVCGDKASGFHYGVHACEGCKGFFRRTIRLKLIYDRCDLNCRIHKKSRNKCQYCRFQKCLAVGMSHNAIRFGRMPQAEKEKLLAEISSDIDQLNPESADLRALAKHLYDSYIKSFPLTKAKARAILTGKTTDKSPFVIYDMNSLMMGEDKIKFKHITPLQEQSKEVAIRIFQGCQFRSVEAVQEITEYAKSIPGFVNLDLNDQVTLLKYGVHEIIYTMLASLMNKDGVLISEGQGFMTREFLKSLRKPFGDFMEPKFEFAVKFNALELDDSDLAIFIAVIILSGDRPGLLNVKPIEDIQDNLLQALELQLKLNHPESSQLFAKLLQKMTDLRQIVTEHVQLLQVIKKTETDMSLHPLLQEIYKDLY",
  "assay": "co-immunoprecipitation (IP: Flag) with immunoblot band intensity quantification",
  "settings": "lysates of HEK293 cells transfected with Flag-Lrp1β-Wt or Mut mixed with GST fused recombinant Pparγ LBD protein; n=3; parent: est. 100; read off a plot",
  "data": [
    {"substance": "Flag-Lrp1β-Wt (VGGLL) L4487A; L4488A", "values": [
      {"measurement": "percent of parent", "value": 13, "unit": "%"}
    ]}
  ]
}
